Reference: patent publication US20120021993A1 (AJOU UNIVERSITY INDUSTRY ACADEMIC COOPERATION FOUNDATION, published 2012)
Like-named read-outs stand apart in the source and are kept apart here. Each block holds one binder with its values, some of them ahead of it.

Legend:
[1] = target: T1, TNFα, extracellular domain (amino acid residue 1-157), 6xHis tag (human, UniProt P01375 57-233); experiment: ELISA, coated target, A405
T1 construct: extracellular domain; Expressed in E. coli; The printed residues 1-157 seem to count on the soluble form, not on the precursor; also called human TNFα; tumor necrosis factor alpha
T1 sequence (P01375 other isoform, or with tags, fused parts or gaps limits assumed): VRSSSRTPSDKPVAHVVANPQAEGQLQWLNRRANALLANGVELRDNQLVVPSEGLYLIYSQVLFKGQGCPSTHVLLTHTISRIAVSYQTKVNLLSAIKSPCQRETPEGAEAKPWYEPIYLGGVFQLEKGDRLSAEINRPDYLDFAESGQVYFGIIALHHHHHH
Protocol: (§1) In order to measure the affinity and cross reactivity of the anti-DR4, -DR5 and -TNFα protein scaffold variants based on the Kringle domain structure to the target molecules, an enzyme-linked immunosorbent assay (ELISA) was performed. The target molecules DR4, DR5, TNFα and DcR1, DcR2 were attached to a 96 well EIA/RIA plate (COSTARCorning In., USA) by its reaction at 37° C. for 1 hour, and washed three times with 0.1% PBST (0.1% Tween20, pH 7.4, 137 mM NaCl, 10 mM Phosphate, 2.7 mM KCl, SIGMA-ALDRICH Co., USA) for 10 minutes. The target molecules were attached for 1 hour to a 96 well EIA/RIA plate in 1% PBSB (1% BSA, pH 7.4, 137 mM NaCl, 10 mM Phosphate, 2.7 mM KCl, SIGMA-ALDRICH Co., USA), and then washed three times with 0.1% PBST (0.1% Tween 20, pH 7.4, 137 mM NaCl, 10 mM Phosphate, 2.7 mM KCl, SIGMA-ALDRICH Co., USA) for 10 minutes. Then, the anti-DR4, -DR5 and -TNFα Kringle domain variants were bound, and washed three times with 0.1% PBST for 10 minutes. The anti-DR4, -DR5 and -TNFα Kringle domain variants were primarily bound to mouse-derived anti-c-myc 9e10 mAb (Ig Therapy, Korea), and secondarily bound to alkaline phosphatase (AP)-conjugated anti-mouse mAb (Sigma). Each of the Kringle domain variants was reacted with […] (pNPP, Sigma-aldrich Co., USA) and quantified at an absorbance of 405 nm.

[2] = target: T1, TNFα, extracellular domain (amino acid …); experiment: ELISA, coated target, A405; remark: listed apart in the source
[3] = target: T2, DcR2 (UniProt Q9UBN6 56-211, limits assumed); experiment: yeast display, flow cytometry MFI
T2 sequence (looked up): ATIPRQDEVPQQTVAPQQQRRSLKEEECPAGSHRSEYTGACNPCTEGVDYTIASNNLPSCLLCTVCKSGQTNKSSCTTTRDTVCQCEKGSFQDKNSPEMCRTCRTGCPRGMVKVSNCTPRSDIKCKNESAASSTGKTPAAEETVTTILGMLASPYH

[4] = target: T3, DcR1 (UniProt O14798 26-221, limits assumed); experiment: yeast display, flow cytometry MFI
T3 sequence (looked up): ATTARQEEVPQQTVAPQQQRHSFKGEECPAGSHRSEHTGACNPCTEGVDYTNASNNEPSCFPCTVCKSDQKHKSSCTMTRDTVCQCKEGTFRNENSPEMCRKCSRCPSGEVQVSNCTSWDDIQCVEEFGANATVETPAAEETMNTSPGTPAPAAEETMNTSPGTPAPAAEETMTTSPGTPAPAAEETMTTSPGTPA

[5] = target: T1, TNFα, extracellular domain (amino acid …); experiment: cell-based or functional assay
[6] = target: T1, TNFα, extracellular domain (amino acid …); experiment: affinity ELISA, target coated on the plate
Protocol: as §1
In order to analyze the affinities of the Fc-fused anti-DR4, -DR5 and -TNFα Kringle domains to target molecules, the affinities of the Fc-fused anti-DR4, -DR5 and -TNFα Kringle domains to the target molecules were analyzed using ELISA, as described in Example 8.

[7] = target: T1, TNFα, extracellular domain (amino acid …); experiment: ELISA, target coated on the plate
[8] = target: T1, TNFα, extracellular domain (amino acid …); experiment: ELISA, homo-dimer against monomer
[9] = target: T4, human-derived cell death receptor 5, extracellular domain (amino acid residues 1-130), 6xHis tag (human, UniProt O14763 56-210); experiment: ELISA on coated DR5, KD506 alone, A405
T4 construct: extracellular domain; Expressed in E. coli; biotinylated for sorting and flow cytometry; also called DR5; TRAIL-receptor 2

[10] = target: T4, human-derived cell death receptor 5, …; experiment: ELISA, coated DR5, A405
[11] = target: T2, DcR2; experiment: yeast display, flow cytometry MFI [panel KD506]
[12] = target: T3, DcR1; experiment: yeast display, flow cytometry MFI [panel KD506]
[13] = target: T5, human-derived cell death receptor 4, extracellular domain (amino acid residues 1-216), 6xHis tag (human, UniProt O00220 24-239); experiment: yeast display, flow cytometry MFI [panel KD506]
T5 construct: extracellular domain; Expressed in E. coli; biotinylated for sorting and flow cytometry; residues 1-216; also called DR4; TRAIL-receptor 1

[14] = target: T4, human-derived cell death receptor 5, …; experiment: ELISA, coated target, A405 [upper panel]
Protocol: as §1

[15] = target: T4, human-derived cell death receptor 5, …; experiment: competitive ELISA on coated DR5, biotinylated KD506 with TRAIL (amount not given), A405
[16] = target: cell surface DR5 (human, UniProt O14763 56-440); experiment: cell-based or functional assay
[17] = target: T6, cell surface DR4 (human, UniProt O00220 24-468); experiment: flow cytometry on BJAB(DR5-/-) cells, MFI
T6 construct: whole, on cells; also called DR4 on cell surfaces

[18] = target: T4, human-derived cell death receptor 5, …; experiment: ELISA, coated target, A405

B2: KDT26-Fc (Fc fusion)
chain: CPRDQGNQYDGFRYGTYRGHRCQHWTRDEPHFHGFGHQHKYTYRHKKNYCRNPDARPRPWCFTHRYQNRNELCHQPRC
notes: Disulfide-linked dimer from Pichia pastoris; also called KRT26-Fc; Fc-fused anti-TNFα Kringle domain KDT26; not shown: Fc domain region from a hinge of human immunoglobulin G1
affinity [6]: 3.8 nM
IC50 (50% inhibiting concentration) of TNFα-mediated cell death, WEHI 164, MTT assay [5]: 5.2 nM

B4: KD506 (designed binder)
chain: CPEDRGHEYDGDGDKTNRGHGCQYWDQNKPHHHGHRDKDKFKHRIKKNYCRNPDYETGPWCFTNRYRNKNELCHEPRC
notes: Soluble monomer from Pichia pastoris; also called anti-DR5 Kringle domain variant KD506; KR506; not shown: C-terminal myc tag-6xHis tag of pPICZaA
EC50 (read off the curve) [9]: ~100 nM
EC50 (read off the curve) [10]: ~300 nM
binding result [11]: no binding
binding result [12]: no binding
binding result [13]: no binding
EC50 (read off the curve) [14]: ~300 nM
EC50 (read off the curve) [15]: ~100 nM
EC50 (a concentration of protein causing a 50% cell death), HL60, MTT assay [16]: 210 nM
EC50 (a concentration of protein causing a 50% cell death), Jurkat, MTT assay [16]: 200 nM
binding result [17]: no binding
EC50 (read off the curve) [18]: ~300 nM

Further lines, with some results ahead:

binding result [3]: no binding
binding result [4]: no binding
B1: KDT26 (designed binder)
chain: CPRDQGNQYDGFRYGTYRGHRCQHWTRDEPHFHGFGHQHKYTYRHKKNYCRNPDARPRPWCFTHRYQNRNELCHQPRC
notes: Soluble monomer from Pichia pastoris; also called KRT26; anti-TNFα Kringle domain variant KDT26; not shown: C-terminal myc tag-6xHis tag of pPICZaA
EC50 (read off the curve) [1]: ~80 nM
EC50 (read off the curve) [2]: ~80 nM
IC50 (50% inhibiting concentration) of TNFα-mediated cell death, WEHI 164, MTT assay [5]: 780 nM

affinity value [7]: 8 nM
fold increase of affinity against the monomer [8]: ~10 fold
B3: anti-TNFα KDT26 homo-dimer (designed binder)
chain: CPRDQGNQYDGFRYGTYRGHRCQHWTRDEPHFHGFGHQHKYTYRHKKNYCRNPDARPRPWCFTHRYQNRNELCHQPRCGGGGSGGGGSGGGGSGGGGSCPRDQGNQYDGFRYGTYRGHRCQHWTRDEPHFHGFGHQHKYTYRHKKNYCRNPDARPRPWCFTHRYQNRNELCHQPRC
